Assay results published in patent US20240209062A1 (INVETX, published 2024).

B1: IgG with feline IgG1a Fc variant S252Y, R301V (antibody)
heavy: DVQLVESGGDLVKPGGSLRLTCVASGLSLTSDSMSWVRQAPGKGLQWVSTLWSNRGTYYTDSVKGRFTISKDNAENTLYLQMNNLKTEDTATYYCASIYYYEADYLHWYFDFWGQGALVTVSSASTTAPSVFPLAPSCGTTSGATVALACLVLGYFPEPVTVSWNSGALTSGVHTFPAVLQASGLYSLSSMVTVPSSRWLSDTFTCNVAHPPSNTKVDKTVRKTDHPPGPKPCDCPKCPPPEAAGGPSIFIFPPKPKDTLYISRTPEVTCLVVDLGPDDSDVQITWFVDNTQVYTAKTSPREEQFNSTYVVVSVLPILHQDWLKGKEFKCKVNSKSLPSPIERTISKAKGQPHEPQVYVLPPAQEELSRNKVSVTCLIKSFHPPDIAVEWEITGQPEPENNYRTTPPQLDSDGTYFVYSKLSVDRSHWQRGNTYTCSVSHEALHSHHTQKSLTQSPG
light: EIQMTQSPTSLSASVGDRVTITCRASEGIANNLSWYQQTPGKAPKLLIYATSNLHSGVPSRFSGSGSGTDFTLTISSLQPEDFATYYCQQGFKWPLTFGGGTKLEITRSDAQPSVFLFQPSLDELHTGSASIVCILNDFYPKEVNVKWKVDGVVQNKGIQESTTEQNSKDSTYSLSSTLTMSSTEYQSHEKFSCEVTHKSLASTLVKSFNRSECQRE
notes: IgG1a constant domain with MALA mutations (M234A, L244A as printed); variable domains from WO 2023/97275
B2: IgG with feline IgG1a Fc variant S252Y, R301Y (antibody)
heavy: DVQLVESGGDLVKPGGSLRLTCVASGLSLTSDSMSWVRQAPGKGLQWVSTLWSNRGTYYTDSVKGRFTISKDNAENTLYLQMNNLKTEDTATYYCASIYYYEADYLHWYFDFWGQGALVTVSSASTTAPSVFPLAPSCGTTSGATVALACLVLGYFPEPVTVSWNSGALTSGVHTFPAVLQASGLYSLSSMVTVPSSRWLSDTFTCNVAHPPSNTKVDKTVRKTDHPPGPKPCDCPKCPPPEAAGGPSIFIFPPKPKDTLYISRTPEVTCLVVDLGPDDSDVQITWFVDNTQVYTAKTSPREEQFNSTYYVVSVLPILHQDWLKGKEFKCKVNSKSLPSPIERTISKAKGQPHEPQVYVLPPAQEELSRNKVSVTCLIKSFHPPDIAVEWEITGQPEPENNYRTTPPQLDSDGTYFVYSKLSVDRSHWQRGNTYTCSVSHEALHSHHTQKSLTQSPG
light: EIQMTQSPTSLSASVGDRVTITCRASEGIANNLSWYQQTPGKAPKLLIYATSNLHSGVPSRFSGSGSGTDFTLTISSLQPEDFATYYCQQGFKWPLTFGGGTKLEITRSDAQPSVFLFQPSLDELHTGSASIVCILNDFYPKEVNVKWKVDGVVQNKGIQESTTEQNSKDSTYSLSSTLTMSSTEYQSHEKFSCEVTHKSLASTLVKSFNRSECQRE
notes: as for B1
B3: IgG with feline IgG1a Fc variant S428L (antibody)
heavy: DVQLVESGGDLVKPGGSLRLTCVASGLSLTSDSMSWVRQAPGKGLQWVSTLWSNRGTYYTDSVKGRFTISKDNAENTLYLQMNNLKTEDTATYYCASIYYYEADYLHWYFDFWGQGALVTVSSASTTAPSVFPLAPSCGTTSGATVALACLVLGYFPEPVTVSWNSGALTSGVHTFPAVLQASGLYSLSSMVTVPSSRWLSDTFTCNVAHPPSNTKVDKTVRKTDHPPGPKPCDCPKCPPPEAAGGPSIFIFPPKPKDTLSISRTPEVTCLVVDLGPDDSDVQITWFVDNTQVYTAKTSPREEQFNSTYRVVSVLPILHQDWLKGKEFKCKVNSKSLPSPIERTISKAKGQPHEPQVYVLPPAQEELSRNKVSVTCLIKSFHPPDIAVEWEITGQPEPENNYRTTPPQLDSDGTYFVYSKLSVDRSHWQRGNTYTCSVLHEALHSHHTQKSLTQSPG
light: EIQMTQSPTSLSASVGDRVTITCRASEGIANNLSWYQQTPGKAPKLLIYATSNLHSGVPSRFSGSGSGTDFTLTISSLQPEDFATYYCQQGFKWPLTFGGGTKLEITRSDAQPSVFLFQPSLDELHTGSASIVCILNDFYPKEVNVKWKVDGVVQNKGIQESTTEQNSKDSTYSLSSTLTMSSTEYQSHEKFSCEVTHKSLASTLVKSFNRSECQRE
notes: as for B1
B4: IgG with feline IgG1a Fc variant S252Y, R392E (antibody)
heavy: DVQLVESGGDLVKPGGSLRLTCVASGLSLTSDSMSWVRQAPGKGLQWVSTLWSNRGTYYTDSVKGRFTISKDNAENTLYLQMNNLKTEDTATYYCASIYYYEADYLHWYFDFWGQGALVTVSSASTTAPSVFPLAPSCGTTSGATVALACLVLGYFPEPVTVSWNSGALTSGVHTFPAVLQASGLYSLSSMVTVPSSRWLSDTFTCNVAHPPSNTKVDKTVRKTDHPPGPKPCDCPKCPPPEAAGGPSIFIFPPKPKDTLYISRTPEVTCLVVDLGPDDSDVQITWFVDNTQVYTAKTSPREEQFNSTYRVVSVLPILHQDWLKGKEFKCKVNSKSLPSPIERTISKAKGQPHEPQVYVLPPAQEELSRNKVSVTCLIKSFHPPDIAVEWEITGQPEPENNYETTPPQLDSDGTYFVYSKLSVDRSHWQRGNTYTCSVSHEALHSHHTQKSLTQSPG
light: EIQMTQSPTSLSASVGDRVTITCRASEGIANNLSWYQQTPGKAPKLLIYATSNLHSGVPSRFSGSGSGTDFTLTISSLQPEDFATYYCQQGFKWPLTFGGGTKLEITRSDAQPSVFLFQPSLDELHTGSASIVCILNDFYPKEVNVKWKVDGVVQNKGIQESTTEQNSKDSTYSLSSTLTMSSTEYQSHEKFSCEVTHKSLASTLVKSFNRSECQRE
notes: as for B1
B5: IgG with feline IgG1a Fc variant S252Y, R392D (antibody)
heavy: DVQLVESGGDLVKPGGSLRLTCVASGLSLTSDSMSWVRQAPGKGLQWVSTLWSNRGTYYTDSVKGRFTISKDNAENTLYLQMNNLKTEDTATYYCASIYYYEADYLHWYFDFWGQGALVTVSSASTTAPSVFPLAPSCGTTSGATVALACLVLGYFPEPVTVSWNSGALTSGVHTFPAVLQASGLYSLSSMVTVPSSRWLSDTFTCNVAHPPSNTKVDKTVRKTDHPPGPKPCDCPKCPPPEAAGGPSIFIFPPKPKDTLYISRTPEVTCLVVDLGPDDSDVQITWFVDNTQVYTAKTSPREEQFNSTYRVVSVLPILHQDWLKGKEFKCKVNSKSLPSPIERTISKAKGQPHEPQVYVLPPAQEELSRNKVSVTCLIKSFHPPDIAVEWEITGQPEPENNYDTTPPQLDSDGTYFVYSKLSVDRSHWQRGNTYTCSVSHEALHSHHTQKSLTQSPG
light: EIQMTQSPTSLSASVGDRVTITCRASEGIANNLSWYQQTPGKAPKLLIYATSNLHSGVPSRFSGSGSGTDFTLTISSLQPEDFATYYCQQGFKWPLTFGGGTKLEITRSDAQPSVFLFQPSLDELHTGSASIVCILNDFYPKEVNVKWKVDGVVQNKGIQESTTEQNSKDSTYSLSSTLTMSSTEYQSHEKFSCEVTHKSLASTLVKSFNRSECQRE
notes: as for B1
B6: IgG with feline IgG1a Fc variant S252Y, T286D (antibody)
heavy: DVQLVESGGDLVKPGGSLRLTCVASGLSLTSDSMSWVRQAPGKGLQWVSTLWSNRGTYYTDSVKGRFTISKDNAENTLYLQMNNLKTEDTATYYCASIYYYEADYLHWYFDFWGQGALVTVSSASTTAPSVFPLAPSCGTTSGATVALACLVLGYFPEPVTVSWNSGALTSGVHTFPAVLQASGLYSLSSMVTVPSSRWLSDTFTCNVAHPPSNTKVDKTVRKTDHPPGPKPCDCPKCPPPEAAGGPSIFIFPPKPKDTLYISRTPEVTCLVVDLGPDDSDVQITWFVDNTQVYDAKTSPREEQFNSTYRVVSVLPILHQDWLKGKEFKCKVNSKSLPSPIERTISKAKGQPHEPQVYVLPPAQEELSRNKVSVTCLIKSFHPPDIAVEWEITGQPEPENNYRTTPPQLDSDGTYFVYSKLSVDRSHWQRGNTYTCSVSHEALHSHHTQKSLTQSPG
light: EIQMTQSPTSLSASVGDRVTITCRASEGIANNLSWYQQTPGKAPKLLIYATSNLHSGVPSRFSGSGSGTDFTLTISSLQPEDFATYYCQQGFKWPLTFGGGTKLEITRSDAQPSVFLFQPSLDELHTGSASIVCILNDFYPKEVNVKWKVDGVVQNKGIQESTTEQNSKDSTYSLSSTLTMSSTEYQSHEKFSCEVTHKSLASTLVKSFNRSECQRE
notes: as for B1
B7: IgG with feline IgG1a Fc variant S252Y, T286E (antibody)
heavy: DVQLVESGGDLVKPGGSLRLTCVASGLSLTSDSMSWVRQAPGKGLQWVSTLWSNRGTYYTDSVKGRFTISKDNAENTLYLQMNNLKTEDTATYYCASIYYYEADYLHWYFDFWGQGALVTVSSASTTAPSVFPLAPSCGTTSGATVALACLVLGYFPEPVTVSWNSGALTSGVHTFPAVLQASGLYSLSSMVTVPSSRWLSDTFTCNVAHPPSNTKVDKTVRKTDHPPGPKPCDCPKCPPPEAAGGPSIFIFPPKPKDTLYISRTPEVTCLVVDLGPDDSDVQITWFVDNTQVYEAKTSPREEQFNSTYRVVSVLPILHQDWLKGKEFKCKVNSKSLPSPIERTISKAKGQPHEPQVYVLPPAQEELSRNKVSVTCLIKSFHPPDIAVEWEITGQPEPENNYRTTPPQLDSDGTYFVYSKLSVDRSHWQRGNTYTCSVSHEALHSHHTQKSLTQSPG
light: EIQMTQSPTSLSASVGDRVTITCRASEGIANNLSWYQQTPGKAPKLLIYATSNLHSGVPSRFSGSGSGTDFTLTISSLQPEDFATYYCQQGFKWPLTFGGGTKLEITRSDAQPSVFLFQPSLDELHTGSASIVCILNDFYPKEVNVKWKVDGVVQNKGIQESTTEQNSKDSTYSLSSTLTMSSTEYQSHEKFSCEVTHKSLASTLVKSFNRSECQRE
notes: as for B1
B8: IgG with feline IgG1a Fc variant S428L, I377L (antibody)
heavy: DVQLVESGGDLVKPGGSLRLTCVASGLSLTSDSMSWVRQAPGKGLQWVSTLWSNRGTYYTDSVKGRFTISKDNAENTLYLQMNNLKTEDTATYYCASIYYYEADYLHWYFDFWGQGALVTVSSASTTAPSVFPLAPSCGTTSGATVALACLVLGYFPEPVTVSWNSGALTSGVHTFPAVLQASGLYSLSSMVTVPSSRWLSDTFTCNVAHPPSNTKVDKTVRKTDHPPGPKPCDCPKCPPPEAAGGPSIFIFPPKPKDTLSISRTPEVTCLVVDLGPDDSDVQITWFVDNTQVYTAKTSPREEQFNSTYRVVSVLPILHQDWLKGKEFKCKVNSKSLPSPIERTISKAKGQPHEPQVYVLPPAQEELSRNKVSVTCLIKSFHPPDLAVEWEITGQPEPENNYRTTPPQLDSDGTYFVYSKLSVDRSHWQRGNTYTCSVLHEALHSHHTQKSLTQSPG
light: EIQMTQSPTSLSASVGDRVTITCRASEGIANNLSWYQQTPGKAPKLLIYATSNLHSGVPSRFSGSGSGTDFTLTISSLQPEDFATYYCQQGFKWPLTFGGGTKLEITRSDAQPSVFLFQPSLDELHTGSASIVCILNDFYPKEVNVKWKVDGVVQNKGIQESTTEQNSKDSTYSLSSTLTMSSTEYQSHEKFSCEVTHKSLASTLVKSFNRSECQRE
notes: Printed '1377L' read as I377L; IgG1a constant domain with MALA mutations (M234A, L244A as printed); variable domains from WO 2023/97275; also called S428L, 1377L

Target: T1, feline FcRn (soluble portion of large subunit p51 isoform X1 with C-terminal 6xHis-tag, co-expressed with … (feline, UniProt Q5MGS7 21-118))
T1 construct: Heterodimer made by co-expression in CHO cells, purified on HisTrap FF; also called FcRn complex
Experiment: SPR, Biacore T200, IgG captured on Protein L chip, feline FcRn flowed over, pH 5.9, 1:1 fit
Procedure: The feline FcRn binding experiments at pH 5.9 were completed on a BIACORE™ T200 instrument. A Series S Protein L Sensor chip (Cytiva, Cat. No. BR29205137) was used to capture the antibody variants via the kappa (κ) light chain. The feline variants were captured onto the protein L chip at a flow rate of 10 μL/min for 60 seconds. 1×PBX-P+(Cytiva Cat 28995084) was adjusted to pH 5.9 for the running buffer. The feline FcRn was flowed over the sensor chip at 30 μL/min for 120 seconds contact time and 600 seconds dissociation time. Regeneration of the flow cells was completed by flowing over 10 mM glycine, pH 1.7 at 30 μL/min for 30 seconds. The data were evaluated by the BIACORE™T200 Evaluation software v3.2.1 by fitting to a 1:1 kinetic interaction model.

T1 sequence (chain, as listed by the source limits assumed, chain 1 of 2): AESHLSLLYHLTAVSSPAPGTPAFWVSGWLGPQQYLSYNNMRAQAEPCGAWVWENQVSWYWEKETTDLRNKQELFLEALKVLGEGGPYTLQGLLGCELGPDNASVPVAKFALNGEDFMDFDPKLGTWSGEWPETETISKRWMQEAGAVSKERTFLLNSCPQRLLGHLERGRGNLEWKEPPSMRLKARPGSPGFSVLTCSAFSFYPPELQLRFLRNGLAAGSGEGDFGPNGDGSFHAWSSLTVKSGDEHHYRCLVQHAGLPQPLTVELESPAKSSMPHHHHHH
T1 sequence (Q5MGS7 other isoform, or with tags, fused parts or gaps limits assumed, chain 2 of 2): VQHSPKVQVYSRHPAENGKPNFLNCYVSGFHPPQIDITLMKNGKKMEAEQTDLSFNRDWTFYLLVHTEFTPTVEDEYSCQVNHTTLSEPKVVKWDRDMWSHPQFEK

Point of comparison: B8, Kd 87.7 nM. Against it:
- B1 — 2.3-fold lower, 38.7 nM
- B2 — 2.3-fold lower, 37.6 nM
- B3 — within 1.5-fold, 64 nM
- B4 — 3.6-fold lower, 24.1 nM
- B5 — 3.5-fold lower, 25 nM
- B6 — 5.8-fold lower, 15.2 nM
- B7 — 7.2-fold lower, 12.1 nM

Point of comparison: B4, koff 0.0287 s⁻¹. Against it:
- B1 — within 1.5-fold, 0.028 s⁻¹
- B2 — within 1.5-fold, 0.0262 s⁻¹
- B3 — 2.2-fold higher, 0.0619 s⁻¹
- B5 — within 1.5-fold, 0.0296 s⁻¹
- B6 — 3-fold lower, 0.00955 s⁻¹
- B7 — 3.7-fold lower, 0.00783 s⁻¹
- B8 — 2.5-fold higher, 0.0723 s⁻¹

Point of comparison: B1, kon 724000 M⁻¹ s⁻¹. Against it:
- B2 — within 1.5-fold, 696000 M⁻¹ s⁻¹
- B3 — within 1.5-fold, 968000 M⁻¹ s⁻¹
- B4 — 1.6-fold higher, 1.19e+06 M⁻¹ s⁻¹
- B5 — 1.6-fold higher, 1.19e+06 M⁻¹ s⁻¹
- B6 — within 1.5-fold, 631000 M⁻¹ s⁻¹
- B7 — within 1.5-fold, 650000 M⁻¹ s⁻¹
- B8 — within 1.5-fold, 819000 M⁻¹ s⁻¹
